# In patent US20260250651, “CAS12 PROTEINS AND USES THEREOF” (GUANGZHOU REFORGENE MEDICINE CO., LTD., published 2026):
# Changes are numbered by the printed parent chain.
# T1: Cas12i-133 (N295R,N260R,G705R,Q971E)
# T1 chain: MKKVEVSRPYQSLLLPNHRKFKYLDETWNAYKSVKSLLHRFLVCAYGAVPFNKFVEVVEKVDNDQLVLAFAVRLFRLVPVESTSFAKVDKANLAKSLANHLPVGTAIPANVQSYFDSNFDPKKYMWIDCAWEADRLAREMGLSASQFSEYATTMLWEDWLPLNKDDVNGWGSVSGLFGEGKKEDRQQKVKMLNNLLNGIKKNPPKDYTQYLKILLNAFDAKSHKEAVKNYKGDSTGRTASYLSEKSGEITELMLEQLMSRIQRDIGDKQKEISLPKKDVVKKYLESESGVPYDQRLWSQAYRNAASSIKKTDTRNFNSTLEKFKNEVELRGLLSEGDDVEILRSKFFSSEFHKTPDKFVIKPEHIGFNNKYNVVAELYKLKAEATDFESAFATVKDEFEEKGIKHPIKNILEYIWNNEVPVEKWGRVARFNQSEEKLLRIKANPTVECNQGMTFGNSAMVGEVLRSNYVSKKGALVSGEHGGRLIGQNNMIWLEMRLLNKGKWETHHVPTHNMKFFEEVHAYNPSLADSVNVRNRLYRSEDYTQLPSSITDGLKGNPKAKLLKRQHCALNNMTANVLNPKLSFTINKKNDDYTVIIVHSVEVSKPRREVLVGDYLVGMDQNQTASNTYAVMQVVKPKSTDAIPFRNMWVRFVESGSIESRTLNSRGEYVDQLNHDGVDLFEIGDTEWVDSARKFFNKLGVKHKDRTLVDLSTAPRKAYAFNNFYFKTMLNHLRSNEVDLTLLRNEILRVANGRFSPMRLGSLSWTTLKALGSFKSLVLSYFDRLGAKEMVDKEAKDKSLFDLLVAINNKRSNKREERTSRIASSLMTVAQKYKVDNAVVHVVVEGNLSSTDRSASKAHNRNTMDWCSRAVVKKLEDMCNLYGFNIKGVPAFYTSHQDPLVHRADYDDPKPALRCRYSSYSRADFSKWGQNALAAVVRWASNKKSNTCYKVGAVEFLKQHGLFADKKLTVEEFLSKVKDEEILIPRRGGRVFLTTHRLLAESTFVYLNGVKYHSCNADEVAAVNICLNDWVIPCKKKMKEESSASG
# T2: Cas12i-99 (N295R,N260R,G705R,D590R)
# T2 chain: T1 chain with D590R, E971Q
# B1: gRNA-TTR ; TTR target (ssRNA ; dsDNA)
# RNA: AGAGAAUGUGUGCAUAGUCACACCAGUAAGAUUUGGUGUCUAU
# DNA 1: CAGTAAGATTTGGTGTCTAT
# DNA 2: ATAGACACCAAATCTTACTG
# B2: gRNA-HBB ; HBB target (ssRNA ; dsDNA)
# RNA: AGAGAAUGUGUGCAUAGUCACACUAUGCAGAAAUAUUGCUAUUGCCU
# DNA 1: TATGCAGAAATATTGCTATTGCCT
# DNA 2: AGGCAATAGCAATATTTCTGCATA
# B3: gRNA-HBG ; HBG target (ssRNA ; dsDNA)
# RNA: AGAGAAUGUGUGCAUAGUCACACACAAGGCAAACUUGACCAAU
# DNA 1: ACAAGGCAAACTTGACCAAT
# DNA 2: ATTGGTCAAGTTTGCCTTGT
# Tests used:
# Cas12i-133 = target: T1, Cas12i-133; test: cell_activity; 293T indels
# Experimental: (§1) Plating: The 293T cell line was plated when the confluence reached 70-80%, and the number of cells seeded in a 24-well plate was 5*10\hat{ }5 cells/well.
# (§2) Transfection: After 12-14 hours of plating, transfection was performed. 100 μl of Opti-MEM, 1.5 μl of PEI (Yisheng Bio, Polyethylenimine Linear (PEI) MW25000), 250 ng of the mutant clone plasmid from Example 2, and 250 ng of gRNA plasmid for targeting endogenous genes were added to each well of a 24-well plate. The mixture was incubated at room temperature for 20 minutes and then added to 293T cells for transfection. After transfection overnight, the medium was replaced with fresh medium and cultured for the next period.
# (§3) DNA extraction, PCR amplification, and Sanger sequencing: After culturing for 72 hours, cells were washed with PBS, and then 100 μl of cell lysis buffer (Viagen, DirectPCR® Lysis Reagent (Cell)) was added for lysis to obtain a lysate containing genomic DNA. The genomic DNA was amplified in the region near the target sequence, and the PCR product was sent to a sequencing company for Sanger sequencing.
# Cas12i-99 = target: T2, Cas12i-99; test: cell_activity; 293T indels
# Experimental: as §1, §2, §3
binder,measurement,setting,value
B1,relative indel editing efficiency,Cas12i-133,4.95 fold of wild type
same,relative indel editing efficiency,Cas12i-99,1.19 fold of Cas12i-69
B2,relative indel editing efficiency,Cas12i-133,0.78 fold of Cas12i-69
same,relative indel editing efficiency,Cas12i-99,0.9 fold of Cas12i-69
B3,relative indel editing efficiency,Cas12i-133,1.57 fold of wild type
same,relative indel editing efficiency,Cas12i-99,7 fold of wild type
